{"source": "paper PMC9594322", "origin": "cited, not measured here", "molecular_target": "HIF-1β PAS-B (Homo sapiens) (UniProt P27540)", "sequence (P27540 356-470)": "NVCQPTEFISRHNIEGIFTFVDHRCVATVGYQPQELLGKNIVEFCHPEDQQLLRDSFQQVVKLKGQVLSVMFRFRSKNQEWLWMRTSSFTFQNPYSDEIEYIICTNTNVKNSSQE", "data": [{"substance": "HIF-1α PAS-B (from UniProt Q16665)", "values": [{"measurement": "Kd", "result": 378, "unit": "nM"}]}]}
